Measurements: article PMC6778148 (Nature Communications, 2019)
Blank lines part the entries; values can stand above or below the binder they belong to. Primed or numbered codes have the meaning given here. Ends that are not written are not given here. FITC′ = fluorescein isothiocyanate label; TTDS = PEG linker

T1: fluorescein-labelled monovalent stargazin peptide
T1 chain: {FITC′-TTDS}-DSLHANTANRRTTPV

B1: SAP102 tandem PDZ domains 1 and 2 (SAP102-12), from pET-NO (domain or fragment, rat)
chain: FKYEEIVLERGNSGLGFSIAGGIDNPHVPDDPGIFITKIIPGGAAAMDGRLGVNDCVLRVNEVDVSEVVHSRAVEALKEAGPVVRLVVRRRQPPPETIMEVNLLKGPKGLGFSIAGGIGNQHIPGDNSIYITKIIEGGAAQKDGRLQIGDRLLAVNNTNLQDVRHEEAVASLKNTSDMVYLKVAKPGSL
notes: first two PDZ domains of rat SAP102, residues 145-333; also called NO-SAP102-12
B2: biotinylated Xph20 [S63K]-(GGS)12-ETWV, from pbIG (designed binder)
chain: SSVSSVPTKLEVVAATPTSLLISWDAVAKNVKVGYYRITYGETGGNSPVQEFTVPGSSSTATISGLKPGVDYTITVYANGVLSKMVLPISINYRTLEGGSGGSGGSGGSGGSGGSGGSGGSGGSGGSGGSGGSGTETWV
modifications: biotin on the AviTag (BirA)
notes: also called Xph20-ETWV; not shown: AviTag (biotin acceptor peptide), N-terminal, kept
B3: Xph20 [S63K]-(GGS)12-ETWV with N-terminal His10, from pET-IG (designed binder)
chain: B2 chain
notes: also called Xph20-ETWV; pIG-Xph20-ETWV; not shown: His10, N-terminal, kept
B4: PSD-95 PDZ domain 2 (PSD-95-2), as used for fluorescence polarisation (domain or fragment, rat)
chain: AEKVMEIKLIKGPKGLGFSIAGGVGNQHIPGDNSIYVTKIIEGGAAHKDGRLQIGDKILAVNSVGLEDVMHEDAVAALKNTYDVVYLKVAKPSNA
notes: also called PSD-95 second PDZ domain; source: E. coli, purified
B5: biotinylated Xph15 [S63K]-(GGS)12-ETWV, from pbIG (designed binder)
chain: SSVSSVPTKLEVVAATPTSLLISWDAGPRNVSYYRITYGETGGNSPVQEFTVPGSSSTATISGLKPGVDYTITVYASGHVSTLMTPISINYRTLEGGSGGSGGSGGSGGSGGSGGSGGSGGSGGSGGSGGSGTETWV
modifications: biotin on the AviTag (BirA)
B6: biotinylated Xph18 [S63K]-(GGS)12-ETWV, from pbIG (designed binder)
chain: SSVSSVPTKLEVVAATPTSLLISWDAHSRMAWVNYYRITYGETGGNSPVQEFTVPGSSSTATISGLKPGVDYTITVYANGGGFRRGMAPISINYRTLEGGSGGSGGSGGSGGSGGSGGSGGSGGSGGSGGSGGSGTETWV
modifications: biotin on the AviTag (BirA)

Assays:
Conditions in all cases: both partners purified
[1] = target: B6; assay: SPR; Biacore T200, single cycle kinetics at higher analyte concentrations (up to 35 µM); biotinylated Xph15/18/20-ETWV captured (ligand), tandem PDZ domains as analyte; steady state analysis, one site binding (hyperbola)
[2] = target: B2; assay: as above
[3] = target: B5; assay: as above
[4] = target: T2, PSD-95 tandem PDZ domains 1 and 2 (PSD-95-12), from pET-NO (rat); assay: SPR; Biacore T200, single cycle kinetics; biotinylated Xph-motif fusion captured on a CAP chip (ligand), tandem PDZ domains as analyte; 25 °C; PBS with 500 mM NaCl pH 7.4, 0.1% Tween 20; global 1:1 fit (kinetics analysis)
T2 construct: first two PDZ domains of rat PSD-95, residues 61-249; also called NO-PSD-95-12; not shown: His8, N-terminal, kept

[5] = target: T3, PSD-93 tandem PDZ domains 1 and 2 (PSD-93-12), from pET-NO (rat); assay: SPR; Biacore T200, single cycle kinetics at higher analyte concentrations (up to 35 µM); biotinylated Xph15/18/20-ETWV captured (ligand), tandem PDZ domains as analyte; steady state analysis, one site binding (hyperbola)
T3 construct: first two PDZ domains of rat PSD-93, residues 93-282; also called NO-PSD-93-12
T3 sequence (chain, as listed by the source): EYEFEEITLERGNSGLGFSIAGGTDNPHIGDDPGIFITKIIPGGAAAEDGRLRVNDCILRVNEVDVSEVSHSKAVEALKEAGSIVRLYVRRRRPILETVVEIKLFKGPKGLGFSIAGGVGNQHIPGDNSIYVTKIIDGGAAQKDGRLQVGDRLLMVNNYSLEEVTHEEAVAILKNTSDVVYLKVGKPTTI

[6] = target: T2, PSD-95 tandem PDZ domains 1 and 2 …; assay: pull-down; competitive pull-down: streptavidin beads with 120 pmol biotinylated [Stg15]2, 180 pmol tandem PDZ domains, then 0-50 (100) equivalents of Xph20-ETWV or Xph0-ETWV; PBS with 500 mM NaCl pH 7.4, Tween 20, 0.5% BSA; SDS-PAGE, colloidal blue, densitometry; One site - Fit Ki
[7] = target: T4, SAP97 tandem PDZ domains 1 and 2 (SAP97-12), from pET-NO (rat); assay: as above
T4 construct: first two PDZ domains of rat SAP97, residues 220-408; also called NO-SAP97-12; not shown: His8, N-terminal, kept

[8] = target: T3, PSD-93 tandem PDZ domains 1 and 2 …; assay: as above
[9] = target: B1; assay: as above
[10] = target: T1, fluorescein-labelled monovalent …; assay: fluorescence polarisation; direct titration: 50 nM fluorescein-labelled stargazin ligand (divalent or monovalent) against increasing concentrations of PDZ domains; apparent KD
[11] = target: B4; assay: fluorescence polarisation; competitive titration: ETWV or stargazin monovalent peptide against the complex of 50 nM FITC monovalent stargazin peptide with 24 µM PSD-95-2
[12] = target: B4; assay: as above

Binder: B1
Kd [1]: 4.2 µM
Kd [2]: 9.9 µM
Kd [3]: 9.8 µM

Binder: B2
Kd [4]: 0.089 nM
koff [4]: 0.00052 s⁻¹
kon [4]: 8.7e+06 M⁻¹ s⁻¹
Kd [5]: 7.5 µM

Binder: B3
Ki [6]: 36.5 nM
Ki [7]: 901 nM
Ki [8]: 261 nM
Ki [9]: 1440 nM

Binder: B4
Kd [10]: 16 µM

Ki [11]: 8.6 µM
Ki [12]: 8.8 µM
Binder: Ac-DSLHANTANRRTTPV [acetylated monovalent stargazin peptide]

Binder: B5
Kd [5]: 8.4 µM

Binder: B6
Kd [5]: 3.2 µM
